# Source: US20230057071A1 (NOVARTIS AG, priority 2019, published 2023)
# Target: T1, TIM-3/Galectin-9 interaction (Homo sapiens, UniProt Q8TDQ0)
# T1 construct: purchased R&D Systems
# Assay: Plate-based (MesoScale) competition assay of the TIM-3/Galectin-9 interaction
# Type: binding
# Conditions: serial dilutions of antibody; labeled Galectin-9 100 nM
# Procedure: FIG. 1 is a graph depicting the impact of MBG453 on the interaction between TIM3 and galectin-9. Competition was assessed as a measure of the ability of the antibody to block Gal9-SULFOTag signal to TIM-3 receptor, which is shown on the Y-axis. Concentration of the antibody is shown on the X-axis.
# TIM-3 fusion protein (R&D Systems) was coated on a standard MesoScale 96 well plate (Meso Scale Discovery) at 2 μg/ml in PBS (Phosphate Buffered Saline) and incubated for six hours at room temperature. The plate was washed three times with PBST (PBS buffer containing 0.05% Tween-20) and blocked with PBS containing 5% Probumin (Millipore) overnight at 4° C. After incubation, the plate was washed three times with PBST and unlabeled antibody (F38-2E2 (BioLegend); MBG453; MBG453 F(ab′)2; MBG453 F(ab); or control recombinant human Galectin-9 protein) diluted in Assay Diluent (2% Probumin, 0.1% Tween-20, 0.1% Triton X-100 (Sigma) with 10% StabilGuard (SurModics)), was added in serial dilutions to the plate and incubated for one hour on an orbital shaker at room temperature. […] The plate was again washed three times with PBST, and Read Buffer T (1×) was added to the plate. The plate was read on MA600 Imager, and competition was assessed as a measure of the ability of the antibody to block Gal9-SULFOTag signal to TIM-3 receptor.
molecule,measurement,value
control Galectin-9 protein: unlabeled control recombinant human Galectin-9 protein (protein) AFSGSQAPYLSPAVPFSGTIQGGLQDGLQITVNGTVLSSSGTRFAVNFQTGFSGNDIAFHFNPRFEDGGYVVCNTRQNGSWGPEERKTHMPFQKGMPFDLCFLVQSSDFKVMVNGILFVQYFHRVPFHRVDTISVNGSVQLSYISFQPPGVWPANPAPITQTVIHTVQSAPGQMFSTPAIPPMMYPHPAYPMPFITTILGGLYPSKSILLSGTVLPSAQRFHINLCSGNHIAFHLNPRFDENAVVRNTQIDNSWGSEERSLPRKMPFVRGQSFSVWILCEAHCLKVAVDGQHLFEYYHRLRNLPTINRLEVGGDIQLTHVQT,block of the interaction between TIM-3 and Galectin-9 (Gal9-SULFOTag signal to TIM-3),did not
